The source of these data is patent US20200347144A1 (SHANGHAI HYAMAB BIOTECH, published 2020).

For experiment [1], the target named is T1, human 4-1BB, full length, on transfected cells (human, UniProt Q07011 24-255).
T1 construct: whole, on cells; also called CHOK1-h4-1BB
Kind of experiment: FACS, CHOK1-h4-1BB cells; Ab 0.00064 ug/ml. From the text: (§1) The pIRES plasmid carrying the full-length gene of monkey-derived […] (the preparation method is the same as the preparation method of the pCpC vector carrying the human-derived IgG Fc fragment (hFc) in “Preparation of immunogen A” of the step (1) in Example 1, in which the database accession number of the amino acid sequence of the extracellular region of monkey 4-1BB protein (Phe19-Thr239) is G7PSE7) was transfected into CHOK1 cell line to obtain CHOK1 stable transfected cell line containing monkey 4-1BB (herein referred to as CHOK1-c4-1BB stable cell line). The CHOK1-h4-1BB stable cell line and the CHOK1-c4-1BB stable cell line were expanded and cultivated to 90% confluence in T-75 cell culture flasks. The medium was exhausted, and washed twice with HBSS buffer (Hanks Balanced Salt Solution, purchased from Invitrogen), and then the cells were treated and collected with enzyme-free cell dissociation solution (Versene solution, purchased from Life Technology). The cells were washed twice with HBSS buffer, and after cell counting, the cells were diluted with HBSS buffer to 2×10⁶ cells per ml, and 1% goat serum blocking solution was added, the percentage being the mass percentage. It was incubated on ice for 30 minutes, and then washed twice with HBSS buffer by centrifugation. The collected cells were suspended in FACS buffer (HBSS containing 1% BSA, the percentage was the mass percentage) to 2×10⁶ cells/mL, and 100 μl per well was added to a 96-well FACS reaction plate. The purified 4-1BB antibody test sample obtained in Example 2 was added, 100 microliters per well and incubated on ice for 2 hours. […] It was washed three times with FACS buffer by centrifugation, and 100 μl of fixative [4% (v/v) paraformaldehyde] per well was added to suspend cells, and washed twice with FACS buffer after 10 minutes by centrifugation. The cells were suspended with 100 microliters of FACS buffer, and the results were detected and analyzed with FACS (FACS Calibur, purchased from BD).
A general note: A flow cytometer gives signals particle by particle.

Experiment [2] addresses T1, human 4-1BB, full length, on …. Kind of experiment: FACS, CHOK1-h4-1BB cells; Ab 2 ug/ml.
Excerpt: as §1

The target in experiment [3] is T2, hFc-tagged human 4-1BB extracellular domain protein (4-1BB-hFc) (human, UniProt Q07011 24-186, limits assumed).
T2 construct: also called immunogen A; 4-1BB^ECD-hFc; not shown: human IgG Fc fragment (hFc) of the pCpC vector
Kind of experiment: ELISA, coated human 4-1BB-hFc; Ab 0.4 ug/ml. The method, then:
(§2) The purified immunogen A (4-1BB-hFc), monkey 4-1BB-his, and mouse 4-1BB-his obtained in Example 1 [for the preparation method, see step 1 of Example 1, preparation of immunogen A], of which the extracellular domain of monkey-derived 4-1BB protein (purchased from ACRO biosystems), the extracellular domain of mouse 4-1BB protein (purchased from sino biological) or other immune detection point proteins respectively were diluted with PBS to a final concentration of 1.0 μg/mL, then added with […] per well to 96-well ELISA plate. It was sealed with plastic film and incubated at 4° C. overnight. The next day, the plate was washed twice with the plate-washing solution [PBS containing 0.01% (v/v) Tween20] and blocking solution [PBS containing 0.01% (v/v) Tween 20 and 1% (v/v) BSA] was added and blocked at room temperature for 2 hours. The blocking solution was discarded and 100 μl of the purified 4-1BB antibody obtained in Example 2 was added per well. After incubated at 37° C. for 2 hours, the plate was washed 3 times with a plate-washing solution [PBS containing 0.01% (v/v) Tween20]. A secondary antibody (purchased from Sigma) labeled with HRP (horseradish peroxidase) was added, and after incubated at 37° C. for 2 hours, the plate was washed 3 times with a plate-washing solution [PBS containing 0.01% (v/v) Tween20]. 100 μl of TMB substrate was added per well. After incubated for 30 minutes at room temperature, 100 μl of stop buffer (1.0N HCl) was added per well. The A450 nm values were read using an ELISA plate reader (SpectraMax 384plus, Molecular Device).

Experiment [4] concerns the target T2, hFc-tagged human 4-1BB extracellular …. Kind of experiment: ELISA, coated human 4-1BB-hFc; Ab 2 ug/ml. As to the method: as §2
On the technique in general: ELISA stands for enzyme-linked immunosorbent assay.

In experiment [5] the target is T3, monkey 4-1BB on CHOK1 cells (monkey).
T3 construct: whole, on cells; also called CHOK1-c4-1BB
Kind of experiment: FACS, CHOK1-c4-1BB cells; Ab 0.016 ug/ml.
Excerpt: as §1

Experiment [6] deals with T1, human 4-1BB, full length, on …. Kind of experiment: FACS on CHOK1-h4-1BB cells, Alexa 488 secondary antibody, average fluorescence intensity.
Excerpt: as §1

In experiment [7] the target is T3, monkey 4-1BB on CHOK1 cells. As to the kind of experiment: FACS, CHOK1-c4-1BB cells; Ab 10 ug/ml.
Excerpt: as §1

The target is the same in experiment [8]. As to the kind of experiment: FACS, CHOK1-c4-1BB cells; Ab 0.00064 ug/ml.
Excerpt: as §1

The target is the same in experiment [9]. Kind of experiment: FACS, CHOK1-c4-1BB cells; Ab 0.0032 ug/ml.
Excerpt: as §1

Experiment [10] concerns the target T1, human 4-1BB, full length, on …. Kind of experiment: FACS, CHOK1-h4-1BB cells; Ab 10 ug/ml.
Excerpt: as §1

Experiment [11] concerns the target T2, hFc-tagged human 4-1BB extracellular …. Kind of experiment: ELISA, coated human 4-1BB-hFc; Ab 0.016 ug/ml. The method, then: as §2
Experiment [12] shares this target. As to the kind of experiment: ELISA: human 4-1BB-hFc coated at 1.0 µg/mL, antibody titrated, HRP secondary antibody, OD450. The method, then: as §2
The target is the same in experiment [13]. Kind of experiment: ELISA, coated human 4-1BB-hFc; Ab 0.0006 ug/ml. As to the method: as §2
Experiment [14] has as its target T3, monkey 4-1BB on CHOK1 cells. As to the kind of experiment: FACS, CHOK1-c4-1BB cells; Ab 2 ug/ml.
Excerpt: as §1

T1 sequence (Q07011 24-255): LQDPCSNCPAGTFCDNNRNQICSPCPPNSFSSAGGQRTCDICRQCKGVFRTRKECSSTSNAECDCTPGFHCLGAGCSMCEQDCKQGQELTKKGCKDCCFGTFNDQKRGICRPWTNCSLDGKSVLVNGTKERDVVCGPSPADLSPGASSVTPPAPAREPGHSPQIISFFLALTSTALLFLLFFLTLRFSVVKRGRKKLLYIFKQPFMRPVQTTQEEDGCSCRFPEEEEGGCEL

B1: 118F3A2 (antibody, V domains shown)
VH: QVQLQQWGAGLLKPSETLSLTCGVYGGSFSTNYWSWIRQSPGKGLEWIGEINHSGNTEYNPSLKSRLTISIDTSKNQFSLKLTSVTAADTAVYYCARMGYHSPSFDFWGQGVLVTVSS
VL: KIVMTQSPATLSVSPGERATLPCRVSQGIGSNLAWYQQKPGQAPRLLIYGASTRATGVPARFSGSGSGSEFTLTISSLQSEDLALYYCQQYNNWPLTFGGGTKVEIK
For B1, the average fluorescence intensity in experiment [1] was found to be 10.8 MFI; in experiment [2], 540 MFI; in [5], 41.2 MFI; in [7] it was 735 MFI; in experiment [8], 4.9 MFI; in experiment [9], 11.8 MFI. Further, the average fluorescence intensity in experiment [10] was 527 MFI; in [14], 688 MFI. Besides, the OD450 nm in experiment [3] was 2.73 OD450 nm; in experiment [4], 2.72 OD450 nm; in experiment [11] it was 0.99 OD450 nm; in [13], 0.44 OD450 nm. The 50% effective concentration (EC50 (read off the curve)) (commonly the midpoint of the concentration-response curve) in experiment [6] is around 0.05 mg/L; in [12] it was around 0.03 mg/L.

B2: 172E3E3 (antibody, V domains shown)
VH: QVQLQESGPGLVKPSGTLSLTCAVSGGSISSSNWWSWVRQPPGKGLEWIGEIYHSGSTNYNPSLKSRVTISVDKSKNQLSLNLSSVTAADTAVYYCARQGGVAGTLYWYFDLWGRGTLVTVSS
VL: DIVMTQSPLSLPVTPGEPASISCRSSQGLLHSNGYNYLDWYLQKPGQSPQLLIYLGSNRASGVPDRFIGSGSGTDFTLKIRRVEAEDVGVYYCMQVLQTPWTFGQGTKVEIK
B2: the average fluorescence intensity in experiment [1] came out at 49.5 MFI; in experiment [2], 486 MFI; in experiment [5], 16.7 MFI; in experiment [7] it was 342 MFI; in experiment [8], 71.7 MFI; in experiment [9] it was 6.6 MFI. Also, the average fluorescence intensity in experiment [10] was 489 MFI; in [14], 305 MFI. Further, the OD450 nm in [3] was determined as 3.44 OD450 nm; in experiment [4], 3.44 OD450 nm; in experiment [11], 1.65 OD450 nm; in [13], 0.2 OD450 nm. The concentration giving a half-maximal response (EC50 (read off the curve)) in experiment [6] was around 0.1 mg/L; in [12], around 0.02 mg/L.

B3: 258F5A8 (antibody, V domains shown)
VH: QVQLVESGGGVVQPGRSLRLSCAASGFTFSSYGMHWVRQAPGKGLEWVAVIWYDGSNKYYADSVKGRFNISRDNSKNTLYLQMNSLRAEDTAVYYCARGPYLYSSGWYDYYYYGMDVWGQGTTVTVSS
VL: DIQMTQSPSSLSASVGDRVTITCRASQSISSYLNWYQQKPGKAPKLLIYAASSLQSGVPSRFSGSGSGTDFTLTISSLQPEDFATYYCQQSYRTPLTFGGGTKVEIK
For the molecule B3, the average fluorescence intensity was 7 MFI in experiment [1]; 766 MFI in experiment [2]; 9.9 MFI in experiment [5]; 131 MFI in experiment [7]; 3 MFI in experiment [8]; 4.5 MFI in experiment [9]. Further, the average fluorescence intensity came to 835 MFI in [10] and 112 MFI in experiment [14]. Moreover, the OD450 nm in experiment [3] came out at 2.69 OD450 nm; in [4], 2.67 OD450 nm; in experiment [11] it was 1.06 OD450 nm; in experiment [13] it was 0.09 OD450 nm. In addition, the concentration giving a half-maximal response (EC50 (read off the curve)) in [6] is around 0.2 mg/L; in experiment [12], around 0.02 mg/L.

B4: 170D7F2 (antibody, V domains shown)
VH: QVQLVQSGAEVKKPGASVKVSCKASGYTFTSYDINWVRQATGQGLEWMGWMNPNSGNTGYAQKFQGRVTMTRNTSISTAYMELSSLRSEDTAVYYCARETGPFDYWGQGTLVTVSS
VL: DIQMTQSPSSLSASVGDRVTITCRASQRINNYLNWYQQKPGKAPKLLIYGASSLQSGVPSRFSGSGSGTDFTLTISSLQPEDFATYYCQQSYSTPFTFGPGTKVDIK
As for B4, the average fluorescence intensity in experiment [1] was found to be 4.9 MFI; in experiment [2], 736 MFI; in experiment [5] it was 25.9 MFI; in experiment [7] it was 700 MFI; in [8], 4 MFI; in experiment [9], 8.5 MFI. The average fluorescence intensity came out at 735 MFI in [10] and 621 MFI in experiment [14]. The OD450 nm in experiment [3] came to 3.5 OD450 nm; in experiment [4] it was 3.49 OD450 nm; in [11], 1.64 OD450 nm; in experiment [13], 0.19 OD450 nm. Further, the figures for the half-maximal effective concentration (EC50 (read off the curve)) in experiment [6] and in experiment [12] were around 0.2 mg/L and around 0.02 mg/L, respectively.

B5: 182A5B3 (antibody, V domains shown)
VH: QVQLVQSGAEVKKPGASVKVSCKASGYTFTSYDINWVRQATGQGLEWMGWMNPNSGNTGYVQKFQGRVTMTRNTSISTAYMELSSLRSEDTAVYYCARETGPFDYWGQGTLVTVSS
VL: not shown
On to B5, for which the average fluorescence intensity in experiment [1] is 5 MFI; in [2] it was 760 MFI; in experiment [5] it was 33.2 MFI; in experiment [7], 746 MFI; in experiment [8], 4.4 MFI; in experiment [9], 10.4 MFI. Also, the average fluorescence intensity in experiment [10] is 769 MFI; in experiment [14], 712 MFI. Moreover, the OD450 nm in experiment [3] amounted to 3.56 OD450 nm; in experiment [4], 3.54 OD450 nm; in [11], 1.48 OD450 nm; in experiment [13], 0.18 OD450 nm. For the same molecule, the concentration giving a half-maximal response (EC50 (read off the curve)) in [6] was around 0.2 mg/L; in experiment [12], around 0.02 mg/L.
